Experimental data taken from patent publication US11504441B2, “Radiolabeled compounds targeting the prostate-specific membrane antigen” (PROVINCIAL HEALTH SERVICES AUTHORITY, priority 2019, dated 2022).

What was measured:
in vivo [1] = assay: in vivo; design: species or system mice; conditions: male, NODSCID 1L2RγKO, mouse, iv, total radioactivity
in vivo [2] = conditions: male, NODSCID 1L2RγKO, mouse, iv, total radioactivity, kidney uptake
Experimental: (§1) LNCaP cell line was obtained from ATCC (LNCaP clone FGC, CRL-1740). […] Cells were cultured in PRM I 1640 medium supplemented with 10% FBS, penicillin (100 U/mL) and streptomycin (100 μg/mL) at 37° C. in a humidified incubator containing 5% CO2. Cells grown to 80-90% confluence were then washed with sterile phosphate-buffered saline (1× PBS pH 7.4) and collected by trypsinization. The collected cells concentration was counted with a Hausser Scientific (Horsham, Pa.) Hemacytometer.
(§2) Imaging and biodistribution experiments were performed using NODSCID 1 L2RγKO male mice. Mice were anesthetized by inhalation with 2% isoflurane in oxygen, and implanted subcutaneously with 1×10^7 LNCaP cells behind left shoulder. Mice were imaged or used in biodistribution studies when the tumor grew up to reach 5-8 mm in diameter during 5-6 weeks.
(§3) PET imaging experiments were conducted using Siemens Inveon micro PET/CT scanner. Each tumor bearing mouse was injected 6-8 MBq of Ga-68 labeled tracer through the tail vein under anesthesia (2% isoflurane in oxygen). The mice were allowed to recover and roam freely in their cage. After 50 min, the mice were sedated again with 2% isoflurane in oxygen inhalation and positioned in the scanner. A 10-min CT scan was conducted first for localization and attenuation correction after segmentation for reconstructing the PET images. Then, a 10-min static PET imaging was performed to determined uptake in tumor and other organs. The mice were kept warm by a heating pad during acquisition. For biodistribution studies, the mice were injected with the radiotracer as described above. The mice was anesthetized with 2% isoflurane inhalation, and euthanized by CO2 inhalation. Blood was withdrawn immediately from the heart, and the organs/tissues of interest were collected. The collected organs/tissues were weighed and counted using a Perkin Elmer (Waltham, Mass.) Wizard2 2480 gamma counter. The uptake in each organ/tissue was normalized to the injected dose using a standard curve, and expressed as the percentage of the injected dose per gram of tissue (% ID/g).
(§4) LNCaP cell line was obtained from ATCC (LNCaP clone FGC, CRL-1740). […] Cells were cultured in PRM I 1640 medium supplemented with 10% FBS, penicillin (100 U/mL) and streptomycin (100 μg/mL) at 37° C. in a humidified incubator containing 5% CO2. Cells grown to 80-90% confluence were then washed with sterile phosphate-buffered saline (1× PBS pH 7.4), and collected by trypsinization. The collected cell concentration was counted with a Hausser Scientific (Horsham, Pa.) Hemacytometer.
(§5) Imaging and biodistribution experiments were performed using NODSCID 1L2RγKO male mice. Mice were anesthetized by inhalation with 2% isoflurane in oxygen, and implanted subcutaneously with 1×10^7 LNCaP cells behind left shoulder. Mice were imaged or used in biodistribution studies when the tumor grew up to reach 5-8 mm in diameter during 5-6 weeks.
(§6) PET imaging experiments were conducted using Siemens Inveon micro PET/CT scanner. Each tumor bearing mouse was injected 6-8 MBq of Ga-68 or F-18 labeled tracer through the tail vein under anesthesia (2% isoflurane in oxygen). The mice were allowed to recover and roam freely in their cage. After 50 min, the mice were sedated again with 2% isoflurane in oxygen inhalation and positioned in the scanner. A 10-min CT scan was conducted first for localization and attenuation correction after segmentation for reconstructing the PET images. Then, a 10-min static PET imaging was performed to determined uptake in tumor and other organs.
(§7) For biodistribution studies, the mice were injected with the radiotracer as described above.

[3] = test system: PSMA-expressing LNCaP cancer xenografts; conditions: mouse, in vivo
Experimental: as §1, §2, §3, §4, §5, §6, §7

Q: Which tissue uptake at 1 h (in vivo [1]; Adrenal glands uptake) does the source give for `COc1ccc(CCCC(=O)NCC(=O)N[C@@H](CCCCNC(=O)CN2CCN(CC(=O)O)CCN(CC(=O)O)CCN(CC(=O)O)CC2)C(=O)NC[C@H]2CC[C@H](C(=O)N[C@@H](Cc3c4ccccc4cc4ccccc34)C(=O)NCCCC[C@H](NC(=O)N[C@@H](CSCC(=O)O)C(=O)O)C(=O)O)CC2)cc1` [177Lu-HTK04048, metal not drawn] here?
A: 3.95 ± 0.34 %ID/g

Q: And the tissue uptake at 4 h (in vivo [1]; Adrenal glands uptake)?
A: 2.1 ± 0.22 %ID/g

Q: And the tissue uptake at 24 h (in vivo [1]; Adrenal glands uptake)?
A: 0.49 ± 0.04 %ID/g

Q: And the tissue uptake at 72 h (in vivo [1]; Adrenal glands uptake)?
A: 0.34 ± 0.03 %ID/g

Q: And the tissue uptake at 120 h (in vivo [1]; Adrenal glands uptake)?
A: 0.37 ± 0.09 %ID/g

Q: And the tissue uptake at 1 h (in vivo [1]; Blood uptake)?
A: 17.7 ± 2.05 %ID/g

Q: What about the tissue uptake at 4 h (in vivo [1]; Blood uptake) of the same compound?
A: 12.3 ± 1.56 %ID/g

Q: And the tissue uptake at 24 h (in vivo [1]; Blood uptake)?
A: 0.68 ± 0.11 %ID/g

Q: What about the tissue uptake at 72 h (in vivo [1]; Blood uptake) of the same compound?
A: 0.12 ± 0.01 %ID/g

Q: And the tissue uptake at 120 h (in vivo [1]; Blood uptake)?
A: 0.05 ± 0.02 %ID/g

Q: What about the tissue uptake at 1 h (in vivo [1]; Bone uptake) of the same compound?
A: 1.04 ± 0.2 %ID/g

Q: And the tissue uptake at 4 h (in vivo [1]; Bone uptake)?
A: 0.74 ± 0.09 %ID/g

Q: What about the tissue uptake at 24 h (in vivo [1]; Bone uptake) of the same compound?
A: 0.11 ± 0.02 %ID/g

Q: And the tissue uptake at 72 h (in vivo [1]; Bone uptake)?
A: 0.07 ± 0.01 %ID/g

Q: And the tissue uptake at 120 h (in vivo [1]; Bone uptake)?
A: 0.07 ± 0.01 %ID/g

Q: What about the tissue uptake at 1 h (in vivo [1]; Brain uptake) of the same compound?
A: 0.31 ± 0.02 %ID/g

Q: And the tissue uptake at 4 h (in vivo [1]; Brain uptake)?
A: 0.18 ± 0.02 %ID/g

Q: And the tissue uptake at 24 h (in vivo [1]; Brain uptake)?
A: 0.03 %ID/g

Q: And the tissue uptake at 72 h (in vivo [1]; Brain uptake)?
A: 0.01 %ID/g

Q: What about the tissue uptake at 120 h (in vivo [1]; Brain uptake) of the same compound?
A: 0.01 %ID/g

Q: What about the tissue uptake at 1 h (in vivo [1]; Fat uptake) of the same compound?
A: 1.32 ± 0.17 %ID/g

Q: And the tissue uptake at 4 h (in vivo [1]; Fat uptake)?
A: 1 ± 0.13 %ID/g

Q: What about the tissue uptake at 24 h (in vivo [1]; Fat uptake) of the same compound?
A: 0.15 ± 0.06 %ID/g

Q: What about the tissue uptake at 72 h (in vivo [1]; Fat uptake) of the same compound?
A: 0.08 ± 0.03 %ID/g

Q: And the tissue uptake at 120 h (in vivo [1]; Fat uptake)?
A: 0.06 ± 0.03 %ID/g

Q: What about the tissue uptake at 1 h (in vivo [1]; Heart uptake) of the same compound?
A: 4.41 ± 0.22 %ID/g

Q: What about the tissue uptake at 4 h (in vivo [1]; Heart uptake) of the same compound?
A: 2.99 ± 0.36 %ID/g

Q: And the tissue uptake at 24 h (in vivo [1]; Heart uptake)?
A: 0.36 ± 0.04 %ID/g

Q: What about the tissue uptake at 72 h (in vivo [1]; Heart uptake) of the same compound?
A: 0.16 ± 0.01 %ID/g

Q: What about the tissue uptake at 120 h (in vivo [1]; Heart uptake) of the same compound?
A: 0.1 ± 0.02 %ID/g

Q: And the tissue uptake at 1 h (in vivo [1]; Intestine uptake)?
A: 1.26 ± 0.2 %ID/g

Q: What about the tissue uptake at 4 h (in vivo [1]; Intestine uptake) of the same compound?
A: 1.03 ± 0.1 %ID/g

Q: What about the tissue uptake at 24 h (in vivo [1]; Intestine uptake) of the same compound?
A: 0.49 ± 0.41 %ID/g

Q: And the tissue uptake at 72 h (in vivo [1]; Intestine uptake)?
A: 0.15 ± 0.09 %ID/g

Q: What about the tissue uptake at 120 h (in vivo [1]; Intestine uptake) of the same compound?
A: 0.05 ± 0.02 %ID/g

Q: And the tissue uptake at 1 h (in vivo [1]; Kidneys uptake)?
A: 14.5 ± 3.33 %ID/g

Q: And the tissue uptake at 4 h (in vivo [1]; Kidneys uptake)?
A: 12.4 ± 1.36 %ID/g

Q: And the tissue uptake at 24 h (in vivo [1]; Kidneys uptake)?
A: 5.06 ± 0.91 %ID/g

Q: What about the tissue uptake at 72 h (in vivo [1]; Kidneys uptake) of the same compound?
A: 2.28 ± 0.24 %ID/g

Q: What about the tissue uptake at 120 h (in vivo [1]; Kidneys uptake) of the same compound?
A: 1.69 ± 0.58 %ID/g

Q: What about the tissue uptake at 1 h (in vivo [1]; Lacrimal uptake) of the same compound?
A: 0.5 ± 0.05 %ID/g

Q: What about the tissue uptake at 4 h (in vivo [1]; Lacrimal uptake) of the same compound?
A: 0.32 ± 0.13 %ID/g

Q: What about the tissue uptake at 24 h (in vivo [1]; Lacrimal uptake) of the same compound?
A: 0.05 ± 0.01 %ID/g

Q: What about the tissue uptake at 72 h (in vivo [1]; Lacrimal uptake) of the same compound?
A: 0.01 ± 0.01 %ID/g

Q: What about the tissue uptake at 120 h (in vivo [1]; Lacrimal uptake) of the same compound?
A: 0.01 ± 0.01 %ID/g

Q: And the tissue uptake at 1 h (in vivo [1]; Liver uptake)?
A: 3.95 ± 0.83 %ID/g

Q: What about the tissue uptake at 4 h (in vivo [1]; Liver uptake) of the same compound?
A: 2.16 ± 0.17 %ID/g

Q: What about the tissue uptake at 24 h (in vivo [1]; Liver uptake) of the same compound?
A: 0.45 ± 0.04 %ID/g

Q: And the tissue uptake at 72 h (in vivo [1]; Liver uptake)?
A: 0.26 ± 0.01 %ID/g

Q: And the tissue uptake at 120 h (in vivo [1]; Liver uptake)?
A: 0.22 ± 0.08 %ID/g

Q: What about the tissue uptake at 1 h (in vivo [1]; Lungs uptake) of the same compound?
A: 9.01 ± 0.91 %ID/g

Q: What about the tissue uptake at 4 h (in vivo [1]; Lungs uptake) of the same compound?
A: 6.35 ± 0.78 %ID/g

Q: What about the tissue uptake at 24 h (in vivo [1]; Lungs uptake) of the same compound?
A: 1.09 ± 0.33 %ID/g

Q: What about the tissue uptake at 72 h (in vivo [1]; Lungs uptake) of the same compound?
A: 0.29 ± 0.05 %ID/g

Q: What about the tissue uptake at 120 h (in vivo [1]; Lungs uptake) of the same compound?
A: 0.15 ± 0.05 %ID/g

Q: What about the tissue uptake at 1 h (in vivo [1]; Muscle uptake) of the same compound?
A: 1.42 ± 0.11 %ID/g

Q: What about the tissue uptake at 4 h (in vivo [1]; Muscle uptake) of the same compound?
A: 1 ± 0.1 %ID/g

Q: And the tissue uptake at 24 h (in vivo [1]; Muscle uptake)?
A: 0.11 ± 0.01 %ID/g

Q: And the tissue uptake at 72 h (in vivo [1]; Muscle uptake)?
A: 0.04 ± 0.01 %ID/g

Q: What about the tissue uptake at 120 h (in vivo [1]; Muscle uptake) of the same compound?
A: 0.05 ± 0.05 %ID/g

Q: What about the tissue uptake at 1 h (in vivo [1]; Pancreas uptake) of the same compound?
A: 1.7 ± 0.17 %ID/g

Q: And the tissue uptake at 4 h (in vivo [1]; Pancreas uptake)?
A: 1.21 ± 0.14 %ID/g

Q: And the tissue uptake at 24 h (in vivo [1]; Pancreas uptake)?
A: 0.17 ± 0.03 %ID/g

Q: What about the tissue uptake at 72 h (in vivo [1]; Pancreas uptake) of the same compound?
A: 0.07 ± 0.01 %ID/g

Q: And the tissue uptake at 120 h (in vivo [1]; Pancreas uptake)?
A: 0.04 ± 0.01 %ID/g

Q: What about the tissue uptake at 1 h (in vivo [1]; Salivary uptake) of the same compound?
A: 2.7 ± 0.29 %ID/g

Q: And the tissue uptake at 4 h (in vivo [1]; Salivary uptake)?
A: 2.01 ± 0.17 %ID/g

Q: What about the tissue uptake at 24 h (in vivo [1]; Salivary uptake) of the same compound?
A: 0.42 ± 0.07 %ID/g

Q: And the tissue uptake at 72 h (in vivo [1]; Salivary uptake)?
A: 0.2 ± 0.03 %ID/g

Q: And the tissue uptake at 120 h (in vivo [1]; Salivary uptake)?
A: 0.14 ± 0.02 %ID/g

Q: And the tissue uptake at 1 h (in vivo [1]; Seminal uptake)?
A: 1.14 ± 0.17 %ID/g

Q: What about the tissue uptake at 4 h (in vivo [1]; Seminal uptake) of the same compound?
A: 0.92 ± 0.2 %ID/g

Q: And the tissue uptake at 24 h (in vivo [1]; Seminal uptake)?
A: 0.11 ± 0.03 %ID/g

Q: And the tissue uptake at 72 h (in vivo [1]; Seminal uptake)?
A: 0.06 ± 0.01 %ID/g

Q: What about the tissue uptake at 120 h (in vivo [1]; Seminal uptake) of the same compound?
A: 0.04 ± 0.01 %ID/g

Q: What about the tissue uptake at 1 h (in vivo [1]; Spleen uptake) of the same compound?
A: 2.54 ± 0.6 %ID/g

Q: What about the tissue uptake at 4 h (in vivo [1]; Spleen uptake) of the same compound?
A: 2.1 ± 0.39 %ID/g

Q: What about the tissue uptake at 24 h (in vivo [1]; Spleen uptake) of the same compound?
A: 0.6 ± 0.05 %ID/g

Q: What about the tissue uptake at 72 h (in vivo [1]; Spleen uptake) of the same compound?
A: 0.62 ± 0.14 %ID/g

Q: What about the tissue uptake at 120 h (in vivo [1]; Spleen uptake) of the same compound?
A: 0.92 ± 0.3 %ID/g

Q: And the tissue uptake at 1 h (in vivo [1]; Stomach uptake)?
A: 0.74 ± 0.14 %ID/g

Q: What about the tissue uptake at 4 h (in vivo [1]; Stomach uptake) of the same compound?
A: 0.81 ± 0.04 %ID/g

Q: And the tissue uptake at 24 h (in vivo [1]; Stomach uptake)?
A: 0.89 ± 0.84 %ID/g

Q: And the tissue uptake at 72 h (in vivo [1]; Stomach uptake)?
A: 0.23 ± 0.16 %ID/g

Q: What about the tissue uptake at 120 h (in vivo [1]; Stomach uptake) of the same compound?
A: 0.03 ± 0.01 %ID/g

Q: What about the tissue uptake at 1 h (in vivo [1]; Tail uptake) of the same compound?
A: 3.57 ± 0.35 %ID/g

Q: What about the tissue uptake at 4 h (in vivo [1]; Tail uptake) of the same compound?
A: 2.72 ± 0.61 %ID/g

Q: And the tissue uptake at 24 h (in vivo [1]; Tail uptake)?
A: 0.4 ± 0.17 %ID/g

Q: And the tissue uptake at 72 h (in vivo [1]; Tail uptake)?
A: 0.15 ± 0.03 %ID/g

Q: And the tissue uptake at 120 h (in vivo [1]; Tail uptake)?
A: 0.19 ± 0.13 %ID/g

Q: And the tissue uptake at 1 h (in vivo [1]; Testes uptake)?
A: 2.25 ± 0.3 %ID/g

Q: And the tissue uptake at 4 h (in vivo [1]; Testes uptake)?
A: 2.68 ± 0.16 %ID/g

Q: What about the tissue uptake at 24 h (in vivo [1]; Testes uptake) of the same compound?
A: 0.73 ± 0.32 %ID/g

Q: And the tissue uptake at 72 h (in vivo [1]; Testes uptake)?
A: 0.34 ± 0.03 %ID/g

Q: What about the tissue uptake at 120 h (in vivo [1]; Testes uptake) of the same compound?
A: 0.26 ± 0.04 %ID/g

Q: What about the tissue uptake at 1 h (in vivo [1]; Thyroid uptake) of the same compound?
A: 3.79 ± 0.23 %ID/g

Q: And the tissue uptake at 4 h (in vivo [1]; Thyroid uptake)?
A: 2.69 ± 0.26 %ID/g

Q: What about the tissue uptake at 24 h (in vivo [1]; Thyroid uptake) of the same compound?
A: 0.55 ± 0.07 %ID/g

Q: And the tissue uptake at 72 h (in vivo [1]; Thyroid uptake)?
A: 0.31 ± 0.04 %ID/g

Q: What about the tissue uptake at 120 h (in vivo [1]; Thyroid uptake) of the same compound?
A: 0.19 ± 0.01 %ID/g

Q: And the tissue uptake at 1 h (in vivo [1]; Tumor uptake)?
A: 15.6 ± 2.98 %ID/g

Q: What about the tissue uptake at 4 h (in vivo [1]; Tumor uptake) of the same compound?
A: 46.5 ± 28.4 %ID/g

Q: What about the tissue uptake at 24 h (in vivo [1]; Tumor uptake) of the same compound?
A: 54.3 ± 10.6 %ID/g

Q: What about the tissue uptake at 72 h (in vivo [1]; Tumor uptake) of the same compound?
A: 66.3 ± 18.7 %ID/g

Q: And the tissue uptake at 120 h (in vivo [1]; Tumor uptake)?
A: 74 ± 35.5 %ID/g

Q: With `O=C(O)CC[C@H](NC(=O)N[C@@H](CCCCNC(=O)[C@H](Cc1c2ccccc2cc2ccccc12)NC(=O)C1CCC(CNC(=O)CN2CCN(CC(=O)O)CCN(CC(=O)O)CCN(CC(=O)O)CC2)CC1)C(=O)O)C(=O)O` (some centres unmarked) [HTK03041] as the compound, how does the tissue uptake at 1 h (in vivo [2]) read?
A: 170 %ID/g

Q: With `O=C(O)CCC[C@H](NC(=O)N[C@@H](CCCCNC(=O)[C@H](Cc1c2ccccc2cc2ccccc12)NC(=O)[C@H]1CC[C@H](CNC(=O)CN2CCN(CC(=O)O)CCN(CC(=O)O)CCN(CC(=O)O)CC2)CC1)C(=O)O)C(=O)O` [HTK03149] as the compound, how does the “uptake in kidney and salivary gland compared to HTK03041” value [3] read?
A: significantly decreases the uptake
